From article PMC9352680, “A comprehensive thermodynamic model for RNA binding by the Saccharomyces cerevisiae Pumilio protein PUF4”

T1: PUF4 RNA-binding domain (Saccharomyces cerevisiae, UniProt P25339 537-888)
T1 sequence: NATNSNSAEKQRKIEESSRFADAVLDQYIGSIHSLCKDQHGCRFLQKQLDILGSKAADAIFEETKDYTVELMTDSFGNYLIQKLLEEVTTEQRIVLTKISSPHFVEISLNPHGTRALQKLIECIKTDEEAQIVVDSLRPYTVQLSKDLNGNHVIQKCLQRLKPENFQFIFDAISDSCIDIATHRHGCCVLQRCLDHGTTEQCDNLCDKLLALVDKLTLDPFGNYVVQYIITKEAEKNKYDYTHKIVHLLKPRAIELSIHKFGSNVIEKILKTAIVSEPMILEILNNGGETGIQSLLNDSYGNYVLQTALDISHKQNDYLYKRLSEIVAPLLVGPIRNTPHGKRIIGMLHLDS


target: T1, PUF4 RNA-binding domain; assay: Mg; RNA-MaP; 20 mM Na-HEPES pH 7.4, 30 mM KOAc, 0.75 mM MgCl2, 0.1% Tween-20, 5% glycerol, 0.1 mg/mL BSA, 2 mM DTT; 25 C; 0.0125-409.6 nM protein; settings: tags: N-His6-TEV cleaved; C-SNAP kept, Cy3B-labelled; label: tethered on chip by stalled RNA polymerase

| Binder | Kd [nM] |
| --- | --- |
| UCUCUUAGUGUUAUUAUCUCUU (ssRNA) [Ib_S1_P5E.1_K5.1_C5.1_H5.1_[T1A]_[A4G]_A5.1_F5.1_T5.1] | > 2300 |
| ACAAACUGACACUUAUUAAGACAAAC (ssRNA) [Id_ii_S3_P5E.4_K5.3_C5.2_[C-2T]_[T-1G]_H5.3_A5.1_F5.1_T5.2_[T11A]_[A12G]] | > 2300 |
| ACAAACCAUAUAUUAUUAAAACAAAC (ssRNA) [Id_ii_S3_P5E.3_K5.2_C5.2_[T-1A]_H5.2_A5.1_F5.1_T5.2_[T11A]] | 631 |
| ACAAACUCACACUUAUUACAACAAAC (ssRNA) [Id_ii_S3_P5E.4_K5.3_C5.2_[C-2T]_[T-1C]_H5.3_A5.1_F5.1_T5.2_[T11C]] | > 2300 |
| ACAAACACACACUUAUUACUACAAAC (ssRNA) [Id_ii_S3_P5E.4_K5.3_C5.2_[C-2A]_[T-1C]_H5.3_A5.1_F5.1_T5.2_[T11C]_[A12T]] | > 2300 |
| ACAAACUUACACUUAUUAUCACAAAC (ssRNA) [Id_ii_S3_P5E.4_K5.3_C5.2_[C-2T]_H5.3_A5.1_F5.1_T5.2_[A12C]] | > 2300 |
| ACAAACUUACACUUAUUAACACAAAC (ssRNA) [Id_ii_S3_P5E.4_K5.3_C5.2_[C-2T]_H5.3_A5.1_F5.1_T5.2_[T11A]_[A12C]] | > 2300 |
| ACAAACAAACACUUAUUACAACAAAC (ssRNA) [Id_ii_S3_P5E.4_K5.3_C5.2_[C-2A]_[T-1A]_H5.3_A5.1_F5.1_T5.2_[T11C]] | > 2300 |
| ACAAACGCACACUUAUUAAAACAAAC (ssRNA) [Id_ii_S3_P5E.4_K5.3_C5.2_[C-2G]_[T-1C]_H5.3_A5.1_F5.1_T5.2_[T11A]] | > 2300 |
| ACAAACAGACACUUAUUAGAACAAAC (ssRNA) [Id_ii_S3_P5E.4_K5.3_C5.2_[C-2A]_[T-1G]_H5.3_A5.1_F5.1_T5.2_[T11G]] | > 2300 |
| ACAAACGAACACUUAUUAACACAAAC (ssRNA) [Id_ii_S3_P5E.4_K5.3_C5.2_[C-2G]_[T-1A]_H5.3_A5.1_F5.1_T5.2_[T11A]_[A12C]] | > 2300 |
| ACAAACGCACACUUAUUAUGACAAAC (ssRNA) [Id_ii_S3_P5E.4_K5.3_C5.2_[C-2G]_[T-1C]_H5.3_A5.1_F5.1_T5.2_[A12G]] | > 2300 |
| ACAAACGUACACUUAUUAAUACAAAC (ssRNA) [Id_ii_S3_P5E.4_K5.3_C5.2_[C-2G]_H5.3_A5.1_F5.1_T5.2_[T11A]_[A12T]] | 707 |
| ACAAACUUACACUUAUUACGACAAAC (ssRNA) [Id_ii_S3_P5E.4_K5.3_C5.2_[C-2T]_H5.3_A5.1_F5.1_T5.2_[T11C]_[A12G]] | > 2300 |
| ACAAACGUACACUUAUUAUCACAAAC (ssRNA) [Id_ii_S3_P5E.4_K5.3_C5.2_[C-2G]_H5.3_A5.1_F5.1_T5.2_[A12C]] | 1180 |
| ACAAACAUACACUUAUUAGGACAAAC (ssRNA) [Id_ii_S3_P5E.4_K5.3_C5.2_[C-2A]_H5.3_A5.1_F5.1_T5.2_[T11G]_[A12G]] | > 2300 |

| Binder | Kd [nM] |
| --- | --- |
| ACAAACUGACACUUAUUAUAACAAAC (ssRNA) [Id_ii_S3_P5E.4_K5.3_C5.2_[C-2T]_[T-1G]_H5.3_A5.1_F5.1_T5.2] | > 2300 |
| ACAAACGUACACUUAUUAUUACAAAC (ssRNA) [Id_ii_S3_P5E.4_K5.3_C5.2_[C-2G]_H5.3_A5.1_F5.1_T5.2_[A12T]] | 702 |
| UCUCUUCGUGUUAUUAUCUCUU (ssRNA) [Ib_S1_P5E.1_K5.1_C5.1_H5.1_[T1C]_[A4G]_A5.1_F5.1_T5.1] | 2300 |
| UCUCUUUCUGUUAUUAUCUCUU (ssRNA) [Ib_S1_P5E.1_K5.1_C5.1_H5.1_[G2C]_[A4G]_A5.1_F5.1_T5.1] | > 2300 |
| ACAAACCAUAUAUUAUUAAUACAAAC (ssRNA) [Id_ii_S3_P5E.3_K5.2_C5.2_[T-1A]_H5.2_A5.1_F5.1_T5.2_[T11A]_[A12T]] | 157 |
| ACAAACCUUAUAUUAUUAAUACAAAC (ssRNA) [Id_ii_S3_P5E.3_K5.2_C5.2_H5.2_A5.1_F5.1_T5.2_[T11A]_[A12T]] | 459 |
| ACAAACCUUAUAUUAUUAGAACAAAC (ssRNA) [Id_ii_S3_P5E.3_K5.2_C5.2_H5.2_A5.1_F5.1_T5.2_[T11G]] | 108 |
| ACAAACUAACACUUAUUACAACAAAC (ssRNA) [Id_ii_S3_P5E.4_K5.3_C5.2_[C-2T]_[T-1A]_H5.3_A5.1_F5.1_T5.2_[T11C]] | > 2300 |
| ACAAACAAACACUUAUUACCACAAAC (ssRNA) [Id_ii_S3_P5E.4_K5.3_C5.2_[C-2A]_[T-1A]_H5.3_A5.1_F5.1_T5.2_[T11C]_[A12C]] | > 2300 |
| ACAAACCUUAUAUUAUUAUUACAAAC (ssRNA) [Id_ii_S3_P5E.3_K5.2_C5.2_H5.2_A5.1_F5.1_T5.2_[A12T]] | 208 |
| ACAAACAAACACUUAUUAAAACAAAC (ssRNA) [Id_ii_S3_P5E.4_K5.3_C5.2_[C-2A]_[T-1A]_H5.3_A5.1_F5.1_T5.2_[T11A]] | > 2300 |
| ACAAACGGACACUUAUUAGCACAAAC (ssRNA) [Id_ii_S3_P5E.4_K5.3_C5.2_[C-2G]_[T-1G]_H5.3_A5.1_F5.1_T5.2_[T11G]_[A12C]] | > 2300 |
| ACAAACACACACUUAUUAUCACAAAC (ssRNA) [Id_ii_S3_P5E.4_K5.3_C5.2_[C-2A]_[T-1C]_H5.3_A5.1_F5.1_T5.2_[A12C]] | > 2300 |
| ACAAACCUUAUAUUAUUAGCACAAAC (ssRNA) [Id_ii_S3_P5E.3_K5.2_C5.2_H5.2_A5.1_F5.1_T5.2_[T11G]_[A12C]] | 59.3 |
| ACAAACGAACACUUAUUAUCACAAAC (ssRNA) [Id_ii_S3_P5E.4_K5.3_C5.2_[C-2G]_[T-1A]_H5.3_A5.1_F5.1_T5.2_[A12C]] | > 2300 |
